± gives the standard deviation of the averaged measurements.
system: Saccharomyces cerevisiae; assay: protein stability index of tFT-peptide fusion (C-terminal peptide) (PSI (0-1 scale)); higher = more stable (slower turnover); settings: genetic background: das1 deletion; temperature: 30 C
Procedure: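 MPS profiling in S. cerevisiae of the yeast C-terminome library: the last 12 aa of each annotated ORF are fused to the C-terminus of a sfGFP-mCherry timer, after a GGGS linker. Cells are FACS-sorted into 8 mCherry/sfGFP bins and deep-sequenced. PSI runs from 0 (unstable) to 1 (stable); wild type and das1Δ backgrounds, two technical replicates each.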

Sequence	protein stability index
FCIFNNVVFPML [RRT1 C-terminal 12 aa]	0.717 ± 0.011
FCMGVAAFVTTA [UTP21 C-terminal 12 aa]	0.493 ± 0.013
FDDDLTAQLYYP [TDA8 C-terminal 12 aa]	0.7291 ± 0.0033
FDTSAQSDRKHS [DCV1 C-terminal 12 aa]	0.719 ± 0.011
FEDCCRWNEKQG [HIS6 C-terminal 12 aa]	0.668 ± 0.022
FENGGKLKEVDK [MDM35 C-terminal 12 aa]	0.686 ± 0.01
FFFPLFLFLYHL [YHR180W-A C-terminal 12 aa]	0.436 ± 0.0054
FFMIMVMVINFI [FIG2 C-terminal 12 aa]	0.195 ± 0.03
FFTKLFKKKSSR [MSC3 C-terminal 12 aa]	0.705 ± 0.02
FFVFLFWWIFLK [SEC22 C-terminal 12 aa]	0.155 ± 0.019
FGQDGCLYIYNQ [YHR045W C-terminal 12 aa]	0.713 ± 0.015
FHTLENHLKGNS [ADR1 C-terminal 12 aa]	0.697 ± 0.02
FIAQAEAEAETD [GRS1 C-terminal 12 aa]	0.688 ± 0.014
FIRKIYSAIKVE [TMN2 C-terminal 12 aa]	0.385 ± 0.012
FKIFAKLFCTRK [HLR1 C-terminal 12 aa]	0.71093 ± 0.00038
FKKSVDQMNAST [PSY2 C-terminal 12 aa]	0.692 ± 0.026
FLSNEPTFLGCV [YPL135C-A C-terminal 12 aa]	0.72 ± 0.018
FLVNTTNKKESD [YIL092W C-terminal 12 aa]	0.6861 ± 0.004
FMSNTLFNSSLV [YPR003C C-terminal 12 aa]	0.668 ± 0.012
FQRRSISGLGDL [INP1 C-terminal 12 aa]	0.711 ± 0.0092
FQTITGEEKEKK [ECM16 C-terminal 12 aa]	0.708 ± 0.027

Sequence	protein stability index
FRSQRLHMDSKP [BUD27 C-terminal 12 aa]	0.727 ± 0.018
FSALMGESDDEE [TIF4631 C-terminal 12 aa]	0.659 ± 0.019
FSTWDIADKQEA [PMT2 C-terminal 12 aa]	0.717 ± 0.016
FSVEQREKPSNN [GRX6 C-terminal 12 aa]	0.69394 ± 0.0003
FTPSNQSHGNFY [TEC1 C-terminal 12 aa]	0.718 ± 0.015
FVYKGVRKPKRN [SEN15 C-terminal 12 aa]	0.752 ± 0.033
FYHVFDEPRYYL [CWH43 C-terminal 12 aa]	0.7524 ± 0.0054
GAGALAAAAMLL [CWP2 C-terminal 12 aa]	0.711 ± 0.032
GASAEDNTHPDE [NAB6 C-terminal 12 aa]	0.694 ± 0.011
GDENFVILEFEC [OAZ1 C-terminal 12 aa]	0.7 ± 0.019
GDIIKLRESVNA [YJL215C C-terminal 12 aa]	0.6729 ± 0.0061
GDLVNAIMSLSK [EGD2 C-terminal 12 aa]	0.696 ± 0.013
GEASTGNRLSFK [BNI1 C-terminal 12 aa]	0.719 ± 0.013
GFLGIRWGPRKD [TIM21 C-terminal 12 aa]	0.7247 ± 0.00099
GFQATVGKRRRM [SUI3 C-terminal 12 aa]	0.699 ± 0.019
GGIRKISGSIKK [CDC14 C-terminal 12 aa]	0.71 ± 0.01
GGSRGGFRGGRR [GAR1 C-terminal 12 aa]	0.685 ± 0.041
GHLSSSRRRLRT [SUV3 C-terminal 12 aa]	0.7217 ± 0.0043
GIDVHYVFRTYH [CIN10 C-terminal 12 aa]	0.704 ± 0.012
GKTTYSEVWAGY [VVS1 C-terminal 12 aa]	0.746 ± 0.04

Reference: the supplement of paper PMC10724198
